Assay results: patent publication US20240352434, “COMPOSITIONS COMPRISING A VARIANT CAS12I3 POLYPEPTIDE AND USES THEREOF” (Arbor Biotechnologies, Inc., published 2024)
Where a chain is given by its changes, count along the chain named.

T1: Cas12i3 T977R (Unidentified, T977R)
T1 chain: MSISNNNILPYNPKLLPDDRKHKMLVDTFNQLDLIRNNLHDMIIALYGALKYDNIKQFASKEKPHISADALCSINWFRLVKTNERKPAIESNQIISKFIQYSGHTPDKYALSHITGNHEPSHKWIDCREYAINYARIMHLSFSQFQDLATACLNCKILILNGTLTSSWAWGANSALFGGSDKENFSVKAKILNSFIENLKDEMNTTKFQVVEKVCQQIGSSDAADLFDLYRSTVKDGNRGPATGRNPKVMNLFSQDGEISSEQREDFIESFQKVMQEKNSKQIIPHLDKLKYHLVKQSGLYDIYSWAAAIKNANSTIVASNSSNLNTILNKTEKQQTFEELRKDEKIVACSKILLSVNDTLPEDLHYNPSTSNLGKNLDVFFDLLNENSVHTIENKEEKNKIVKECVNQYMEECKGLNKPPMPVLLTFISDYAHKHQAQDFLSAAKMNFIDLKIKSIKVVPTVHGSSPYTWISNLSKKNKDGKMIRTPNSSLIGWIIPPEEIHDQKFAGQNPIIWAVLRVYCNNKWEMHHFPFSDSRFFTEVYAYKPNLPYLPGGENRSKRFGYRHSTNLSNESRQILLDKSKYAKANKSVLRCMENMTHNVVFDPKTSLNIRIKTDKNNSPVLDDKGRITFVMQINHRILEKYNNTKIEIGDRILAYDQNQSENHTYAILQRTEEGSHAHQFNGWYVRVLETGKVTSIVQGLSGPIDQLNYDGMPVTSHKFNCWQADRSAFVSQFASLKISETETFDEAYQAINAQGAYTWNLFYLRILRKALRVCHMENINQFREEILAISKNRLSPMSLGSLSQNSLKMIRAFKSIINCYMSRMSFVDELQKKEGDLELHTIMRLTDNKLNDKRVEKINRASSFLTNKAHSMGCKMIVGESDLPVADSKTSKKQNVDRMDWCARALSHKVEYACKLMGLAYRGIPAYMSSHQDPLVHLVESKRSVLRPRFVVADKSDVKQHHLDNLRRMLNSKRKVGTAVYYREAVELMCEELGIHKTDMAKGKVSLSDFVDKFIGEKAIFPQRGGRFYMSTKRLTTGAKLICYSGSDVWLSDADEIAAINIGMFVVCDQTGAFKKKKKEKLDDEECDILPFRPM

T2: Cas12i3 R565G (Unidentified, R565G)
T2 chain: T1 chain with R565G, R977T

B1: VEGFA_T2 crRNA ; VEGFA_T2 target (ssRNA ; dsDNA)
RNA: AUAGUGUGUCCUUAGUUGACAUAAUCCUCCACCAGUCAUGGU
DNA 1: AATCCTCCACCAGTCATGGT
DNA 2: ACCATGACTGGTGGAGGATT
B2: EMX1_T5 crRNA ; EMX1_T5 target (ssRNA ; dsDNA)
RNA: AUAGUGUGUCCUUAGUUGACAUUAUUAUUCCCAUAGGGAAGG
DNA 1: TATTATTCCCATAGGGAAGG
DNA 2: CCTTCCCTATGGGAATAATA
B3: AAVS1_T3 crRNA ; AAVS1_T3 target (ssRNA ; dsDNA)
RNA: AUAGUGUGUCCUUAGUUGACAUGUGAGAAUGGUGCGUCCUAG
DNA 1: GTGAGAATGGTGCGTCCTAG
DNA 2: CTAGGACGCACCATTCTCAC

Biological target: T1, Cas12i3 T977R
Test: cell_activity; fold change in % indels, HEK293T; PAM not stated in example
Summary of the method: (§1)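 HEK293T cells lipofected with Lipofectamine 2000 (crRNA omitted in negative controls). Harvested 72 h post-transfection and lysed in QuickExtract. Target loci amplified by two-round PCR and sequenced on NextSeq (150 cycles) to quantify % indels.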

Row | Binder | binding signal
1 | B1 | 1.35 fold of wild-type
2 | B2 | 1.04 fold of wild-type
3 | B3 | 2.37 fold of wild-type

Biological target: T2, Cas12i3 R565G
Test: as above
Summary of the method: as §1

Row | Binder | binding signal
4 | B1 | 0.73 fold of wild-type
5 | B2 | 1.21 fold of wild-type
6 | B3 | 1.86 fold of wild-type
